Test results from patent publication US20250042946A1, “Biological Production of Histidine-Rich Peptides” (Oakgrove Bio LLC, priority 2021, published 2025).

B1: IIP003: insoluble immunogenic peptide, 6 × SAP162 with 3 × Ova1, Structure 9, SEQ ID NO: 104 (protein)
chain: MASGGDPGGHQEYHYHYRQHGGGGSIINFEKLGGGGHQEYHYHYRQHGGDPGGHQEYHYHYRQHGGGGSIINFEKLGGGGHQEYHYHYRQHGGDPGGHQEYHYHYRQHGGGGSIINFEKLGGGGHQEYHYHYRQHGGDPGGPGPGP
B2: IIP015: insoluble immunogenic peptide, 6 × SAP234 with 3 × Ova1, Structure 9, SEQ ID NO: 114 (protein)
chain: MASGGDPGGQQHYHYHQQGGGGSIINFEKLGGGGQQHYHYHQQGGDPGGQQHYHYHQQGGGGSIINFEKLGGGGQQHYHYHQQGGDPGGQQHYHYHQQGGGGSIINFEKLGGGGQQHYHYHQQGGDPGGPGPGP
B3: IFP-Luna-006: split fusion, two copies of Lunasin sandwiched between three copies of IFP100, SEQ ID NO: 102 (protein)
chain: MASGGGQQHYHYHQQGGGGQQHYHYHQQGGDPGGSKWQHQQDSCRKQLQGVNLTPCEKHIMEKIQGRGDDDDDDDDDPGGGGQQHYHYHQQGGGGQQHYHYHQQGGDPGGSKWQHQQDSCRKQLQGVNLTPCEKHIMEKIQGRGDDDDDDDDDPGGGGQQHYHYHQQGGGGQQHYHYHQQGGGPGPGPHHHHHH
B4: IFP-Api-006: split fusion, two copies of Apidaecin sandwiched between three copies of IFP100, SEQ ID NO: 100 (protein)
chain: MASGGGQQHYHYHQQGGGGQQHYHYHQQGGDPGGGNNRPVYIPQPRPPHPPRGGDPGGQQHYHYHQQGGGGQQHYHYHQQGGDPGGGNNRPVYIPQPRPPHPPRGGDPGGQQHYHYHQQGGGGQQHYHYHQQGGGPGPGPHHHHH
B5: IFP-Api-003: split fusion, Apidaecin sandwiched between two copies of IFP100, cLNK GGDPGG, SEQ ID NO: 98 (protein)
chain: MASGGGQQHYHYHQQGGGGQQHYHYHQQGGDPGGGNNRPVYIPQPRPPHPPRGGDPGGQQHYHYHQQGGGGQQHYHYHQQGGGPGPGPHHHHHH
B6: IFP221: insolubility fusion partner of IFP221-Api; 3 × QQEYHYHYHYRQQ with GGGG spacers as in SEQ ID NO: 94 (protein)
chain: MASGGGQQEYHYHYHYRQQGGGGQQEYHYHYHYRQQGGGGQQEYHYHYHYRQQGGGDPGGGNNRPVYIPQPRPPHPRLGGGGDPGGGNNRPVYIPQPRPPHPRLGGGGDPGPGPHHHHHH

Assay: not given
Format: physicochemical
Details: pH 2
Protocol: To evaluate the useful solubilization of the IFPs at acidic and alkaline pH (from pH 2 to pH 12), the insoluble fractions of cell extracts expressing selected IFPs were produced as described in Example 2. They were pelleted by centrifugation for 5 min at 20,000×g and washed with water several times to remove the buffer. The washed pellets were resuspended in 10 mM HCl pH 2 or in 10 mM NaOH pH 12. Suspensions were mixed vigorously and allowed to stand at room temperature for 15 min at which time they were centrifuged again for 5 min at 20,000×g. The solubilization of the IFPs in either acidic (pH 2) or alkaline (pH 12) conditions was assessed by PAGE analysis of an aliquot of the centrifugation supernatant.
Cells were harvested by centrifugation at 20,000×g, resuspended in 1 mL of 25 mM Tris […] pH 7.5 and disrupted with a bead beater as described in Example 2. Following cell disruption and centrifugation, the insoluble fractions were washed several times in deionized water to remove traces of buffer and then recovered by centrifugation. The fractions were resuspended in 1 mL of 10 mM HCl pH 2 with repeated vortexing over 15 min at room temperature. […] Aliquots of each fraction corresponding to a same initial volume of cell extracts were analyzed by SDS-PAGE.

| Molecule | solubilization at acidic pH |
| --- | --- |
| B1 | solubilization |
| B2 | solubilization |

Assay: not given
Format: physicochemical
Details: not given
Protocol: After 15 min at pH 2, the acidified supernatant fraction were neutralized by addition of 40 μL 500 mM Tris base or 60 μL of Bis-Tris base per mL of pH 2 fraction to reach a pH comprised between 6.5 and 8.0. For most fusions, the neutralization was accompanied by the immediate formation of a precipitate. When only a light precipitate was observed, the buffer was adjusted to neutrality by addition of HCl or of buffer base. The neutralized fractions were placed at −20° C. for 20 min and were subsequently thawed. The neutralized fractions were then centrifuged at 20,000×g for 5 min. Their supernatant was discarded and the pellets containing the insoluble fusion peptides resuspended in 1 ml of water.

| Molecule | re-insolubilization (precipitation) upon neutralization |
| --- | --- |
| B1 | re-insolubilization |
| B2 | re-insolubilization |

Assay: Soluble versus insoluble fraction of E. coli cell extracts, SDS-PAGE
Format: physicochemical
Details: cell extract in 25 mM Tris 50 mM NaCl pH 7.5, centrifugation 20,000×g
Protocol: To determine the soluble versus insoluble cell contents, cells from each of the 3 mL cultures were harvested by centrifugation and the pellet resuspended in 1 ml of 25 mM Tris 50 mM NaCl PH 7.5 buffer. The cell suspensions were transferred in 2 mL screw cap tubes containing 0.5 mL of ZrO2/SiO4 0.1 mm beads (Research Product International, Mount Prospect, IL) and disrupted in a FastPrep-24™ bead beater (MP Bio Irvine, CA) for 1 min at 5 m/s. After disruption, the cell extracts were transferred to new microfuge tubes. The soluble and insoluble fractions were then separated by centrifugation at 20,000×g for 5 min. The supernatants containing the soluble proteins were transferred to new tubes and the pellets containing the inclusion bodies were resuspended in the same volume of Tris-NaCl buffer.
Ten μL aliquots of the soluble fraction and of the particulate fraction are analyzed by SDS-PAGE using precast NuPAGE™ Bis-Tris 12% polyacrylamide gels (Thermo Scientific) as indicated by the manufacturer. After electrophoresis, the proteins and peptides were visualized by staining with GelCode™ Blue Safe Protein Coomassie Stain (Thermo Scientific).

| Molecule | solubility of the polypeptide as expressed in E. coli |
| --- | --- |
| B3 | expressed the split fusion insolubly |
| B4 | expressed the split fusion insolubly |
| B1 | produced insolubly |
| B5 | expressed the split fusion insolubly |
| B2 | produced insolubly |

Assay: not given
Format: physicochemical
Details: not given
Remark: another data set of the same source
Protocol: After the acid-based purification step at acidic pH described in Example 5, the neutralized insoluble fusion peptides were washed again with water to remove traces of buffer and were resuspended in 1 mL of 10 mM HCl pH 2. The precipitates resolubilized immediately thus highlighting the rapid, reversible and pH-controllable properties of the peptide fusions to IFPs The tubes containing the solubilized fusion peptides were incubated at 80° C. for 4 hours to allow the cleavage of the Asp-Pro acid-labile peptide bond in the linker connecting the IFP and the POI. After four hours at 80° C., the solutions were neutralized back to a pH comprised between 6.5 and 8.0 by addition of 60 μL of 500 mM Tris Base Tris per mL of pH 2 peptide solution. For most fusions, the neutralization was accompanied by the immediate formation of precipitates. When only a light precipitate was observed, the buffer was adjusted to neutrality by careful addition of HCl or of buffer base. The neutralized fractions were placed at −20° C. for 20 min to enhance precipitation, and then subsequently thawed and centrifuged at 20,000×g for 5 min. The supernatants were transferred to a new tube and the pellets resuspended in 1 ml of water. Aliquots of soluble and insoluble fractions were analyzed by PAGE.

| Molecule | solubility at neutral pH after acid cleavage (partition supernatant / pellet) |
| --- | --- |
| Apidaecin | recovered in the soluble fraction |
| IFP534: insolubility fusion partner, 4 × QQHYHYHQQ, GGGG linker, SEQ ID NO: 62 | remains in the insoluble fraction |
| Lunasin | recovered in the soluble fraction |
| B6 | remains in the insoluble fraction |
